Laboratory results: paper PMC3609803, “SipB-SipC Complex Is Essential for Translocon Formation” (PLoS ONE, 2013)

Target: T1, GST-SicA (Salmonella enterica serovar Typhimurium, UniProt P69066 1-165)
T1 construct: SicA, the chaperone for SipC, Salmonella enterica serovar Typhimurium; source: GST-tagged recombinant protein, purified
Assay: pull-down; purified His-SipC-N and derivatives immobilised on Ni-NTA beads, 1 hr at 4°C; GST or GST-SicA added, 2 hrs at 4°C; washed four times in PBS with 1% NP-40; blotted with anti-His and anti-GST
Details: both partners purified

T1 sequence (P69066 whole entry): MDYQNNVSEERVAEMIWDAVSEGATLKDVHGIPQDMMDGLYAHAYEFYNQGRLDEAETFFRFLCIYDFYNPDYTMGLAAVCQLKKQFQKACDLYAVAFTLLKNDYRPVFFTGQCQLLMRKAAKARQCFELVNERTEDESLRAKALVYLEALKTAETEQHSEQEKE

B1: His-SipC-N (domain or fragment)
chain: MLISNVGINPAAYLNNHSVENSSQTASQSVSAKDILNSIGISSSKVSDLGLSPTLSAPAPGVLTQTPGTITSFLKASIQNTDMNQDLNALANNVTTKANEVVQTQLREQQAEVGKFFDIS
notes: N-terminal region of SipC of Salmonella enterica serovar Typhimurium; also called wild-type SipC-N; source: His-tagged recombinant protein, purified
  binding result: binds
